Test results from publication PMC5339710, “Single-molecule studies reveal reciprocating of WRN helicase core along ssDNA during DNA unwinding”.

T1: WRN helicase core (WRN512-1213) (Gallus gallus, UniProt D3KR65 512-1213)
T1 sequence: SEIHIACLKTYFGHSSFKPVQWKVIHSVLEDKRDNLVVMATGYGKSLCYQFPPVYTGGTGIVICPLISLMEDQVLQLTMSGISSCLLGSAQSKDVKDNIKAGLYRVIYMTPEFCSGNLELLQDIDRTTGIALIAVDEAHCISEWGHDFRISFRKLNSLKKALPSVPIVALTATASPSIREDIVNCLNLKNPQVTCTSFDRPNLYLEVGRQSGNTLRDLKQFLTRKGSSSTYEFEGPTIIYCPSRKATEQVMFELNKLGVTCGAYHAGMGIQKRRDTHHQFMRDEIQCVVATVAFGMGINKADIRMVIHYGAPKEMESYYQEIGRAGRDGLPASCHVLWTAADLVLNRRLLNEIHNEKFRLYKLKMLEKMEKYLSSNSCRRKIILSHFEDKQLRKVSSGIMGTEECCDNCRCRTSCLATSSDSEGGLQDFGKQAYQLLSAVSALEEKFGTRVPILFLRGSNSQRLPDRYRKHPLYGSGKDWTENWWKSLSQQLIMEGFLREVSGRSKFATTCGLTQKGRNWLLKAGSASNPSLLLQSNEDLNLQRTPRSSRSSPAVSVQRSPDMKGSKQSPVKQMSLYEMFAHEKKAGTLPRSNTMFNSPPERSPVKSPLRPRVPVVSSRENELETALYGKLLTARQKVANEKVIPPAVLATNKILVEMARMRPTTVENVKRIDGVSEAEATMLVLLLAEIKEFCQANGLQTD

B1: 16bp-FAM (dsDNA)
DNA 1: CTCTGCTCGACGGATT
DNA 2: AATCCGTCGAGCAGAG

Experiments:
[1] = molecular target: T1, WRN helicase core (WRN512-1213); assay: fluorescence polarization anisotropy; 0.2 mM ADP; 5 mM Mg2+; Hill coefficient 1; 20 mM Tris-HCl pH 8.0, 50 mM KCl, 5 mM MgCl2, 5 nM DNA, 25 C, 5 min equilibration; details: protein: recombinant; tags: 6xHis-SUMO at N-terminus, cleaved with Ulp; label: fluorescein (FAM), position by colour only; single strand
[2] = molecular target: T1, WRN helicase core (WRN512-1213); assay: fluorescence polarization anisotropy; 0.2 mM ATPgS; 5 mM Mg2+; Hill coefficient 1; 20 mM Tris-HCl pH 8.0, 50 mM KCl, 5 mM MgCl2, 5 nM DNA, 25 C, 5 min equilibration; details: protein: recombinant; tags: 6xHis-SUMO at N-terminus, cleaved with Ulp; label: fluorescein (FAM), position by colour only; single strand
[3] = molecular target: T1, WRN helicase core (WRN512-1213); assay: fluorescence polarization anisotropy; 5 mM Mg2+; no nucleotide stated; Hill coefficient 2; 20 mM Tris-HCl pH 8.0, 50 mM KCl, 5 mM MgCl2, 5 nM DNA, 25 C, 5 min equilibration; details: protein: recombinant; tags: 6xHis-SUMO at N-terminus, cleaved with Ulp; label: fluorescein (FAM), position by colour only; blunt

| Binder | Kd [1] [nM] | Kd [2] [nM] | Kd [3] [nM] |
| --- | --- | --- | --- |
| CTCTGCTCGACGGATT (ssDNA) [16nt-FAM] | 141 ± 10.5 | 76.6 ± 4.2 | – |
| B1 | – | – | 32.2 ± 2.8 |
